B1: anti-CD40 IgM (antibody, V domains shown)
VH: EVQLQQSGPDLVKPGASVKISCKTSGYTFTEYIMHWVKQSHGNSLEWIGGIIPNNGGTSYNQKFKDKATMTVDKSSSTGYMELRSLTSEDSAVYYCTRREVYGRNYYALDYWGQGTLVTVSS
VL: DIQMTQTTSSLSASLGDRVTITCSASQGINNYLNWYQQKPDGTVKLLIYYTSSLHSGVPSRFSGSGSGTDYSLTISNLEPEDIATYYCQQYSNLPYTFGGGTKLEIK
B2: anti-CD40 IgG (antibody, V domains shown)
VH: B1 VH
VL: B1 VL
notes: detection was with anti-human kappa

Columns and labels:
[1] = biological target: T1, Recombinant human CD40-Fc (R&D Systems) (human, UniProt P25942 21-193); assay: ELISA, plate coated with 1.6 ng/mL human CD40-Fc, detection with anti-human kappa-HRP; Bmax by one site-specific binding with Hill slope; reference anti-CD40 IgG
T1 construct: also called CD4O-Fc; not shown: Fc part of the bought fusion protein
T1 sequence (P25942 21-193 limits assumed): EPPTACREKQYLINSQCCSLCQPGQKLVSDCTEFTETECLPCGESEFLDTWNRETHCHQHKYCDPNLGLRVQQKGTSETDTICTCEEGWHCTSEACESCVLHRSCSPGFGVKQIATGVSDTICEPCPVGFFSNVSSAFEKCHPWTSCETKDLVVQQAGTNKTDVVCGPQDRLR

[2] = biological target: T1, Recombinant human CD40-Fc (R&D Systems); assay: ELISA, plate coated with 6.25 ng/mL human CD40-Fc, detection with anti-human kappa-HRP; Bmax by one site-specific binding with Hill slope; reference anti-CD40 IgG
[3] = biological target: T1, Recombinant human CD40-Fc (R&D Systems); assay: ELISA on coated human CD40-Fc (1.6 and 6.25 ng/mL)
Method: The binding specificity of anti-CD40 IgM and anti-CD40 IgG were measured in an ELISA assay using two different antigen densities by the following method. […] All subsequent washes used PBS+0.05% Tween and all incubation steps were performed in block buffer (2% BSA in PBS). Plates were washed three times, blocked for one hour, and then washed again. The plates were then incubated for one hour with four-fold dilutions of anti-CD40-IgG and anti-CD40-IgM. After washing, the plates were incubated with a 1:6000 dilution of anti-human kappa-HRP (Southern Biotech #9230-05) in blocking buffer for 1 hour at room temperature. The plates were again washed 5 times, and then incubated with TMB substrate (BD Biosciences #555214) for 20 minutes at room temperature. The reaction was stopped with 1M H₂SO₄ and absorbance at 450 nm was read on a SpectraMax340 plate reader (Molecular Devices) using SoftMax Pro software.
Bmax was then calculated at each coating density in GraphPad Prism software using One site-Specific binding with Hill slope. […] IgM is thus more sensitive in detecting low CD40 levels than IgG.

Binder	fold better binding than anti-CD40 IgG (ratio of Bmax) [1] [fold]	fold better binding than anti-CD40 IgG (ratio of Bmax) [2] [fold]	binding result [3]
B1	~5.5	~2.3	
B2			binds

Source: patent publication US20220106399A1 (IGM BIOSCIENCES, published 2022)
